Tests used:
Assay in all cases: peptide DELFIA ELISA;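 further: epitope mapping using overlapping 20-mer GUCY2C peptides covering residues 1-440, extracellular into transmembrane domain, coated at 20 µg/ml as target antigen and probed with antibodies or GUCY2C-CD3 bispecifics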
[1] = target: T1, GUCY2C_ECD Peptide 45 (human)
T1 peptide: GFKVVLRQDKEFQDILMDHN
Protocol: (§1) Arrays were reconstituted with acetonitrile to 100 μg/ml and were then further diluted to 20 μg/ml with sodium carbonate/bicarbonate buffer. Purified antibodies or GUCY2c-CD3 bispecifics were then tested by Delfia ELISA for binding to the different peptides using Delfia ELISA methods previously discussed, with diluted peptides used as the target antigen.

[2] = target: T2, GUCY2C_ECD Peptide 87 (human)
T2 peptide: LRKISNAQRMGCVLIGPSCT
Protocol: as §1

[3] = target: T3, GUCY2C_ECD Peptide 32 (human)
T3 peptide: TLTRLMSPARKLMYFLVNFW
Protocol: as §1

[4] = target: T4, GUCY2C_ECD Peptide 82 (human)
T4 peptide: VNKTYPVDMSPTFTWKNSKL
Protocol: as §1

[5] = target: T5, GUCY2C_ECD Peptide 40 (human)
T5 peptide: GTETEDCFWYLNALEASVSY
Protocol: as §1

[6] = target: T6, GUCY2C_ECD Peptide 63 (human)
T6 peptide: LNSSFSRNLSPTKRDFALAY
Protocol: as §1

[7] = target: T7, GUCY2C_ECD Peptide 20 (human)
T7 peptide: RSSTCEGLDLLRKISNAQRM
Protocol: as §1

[8] = target: T8, GUCY2C_ECD Peptide 34 (human)
T8 peptide: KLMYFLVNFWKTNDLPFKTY
Protocol: as §1

[9] = target: T9, GUCY2C_ECD Peptide 17 (human)
T9 peptide: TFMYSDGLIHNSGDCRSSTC
Protocol: as §1

[10] = target: T10, GUCY2C_ECD Peptide 19 (human)
T10 construct: also called GUCY2c peptide 19; GUCY2c-ECD peptide number 19
T10 peptide: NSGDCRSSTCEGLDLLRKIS
Protocol: as §1

[11] = target: T11, GUCY2C_ECD Peptide 29 (human)
T11 peptide: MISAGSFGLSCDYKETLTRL
Protocol: as §1

[12] = target: T12, GUCY2C_ECD Peptide 12 (human)
T12 peptide: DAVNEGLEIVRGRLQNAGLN
Protocol: as §1

[13] = target: T13, GUCY2C_ECD Peptide 14 (human)
T13 peptide: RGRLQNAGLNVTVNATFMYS
Protocol: as §1

[14] = target: T14, GUCY2C_ECD Peptide 50 (human)
T14 peptide: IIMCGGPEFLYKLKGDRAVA
Protocol: as §1

[15] = target: T15, GUCY2C_ECD Peptide 55 (human)
T15 peptide: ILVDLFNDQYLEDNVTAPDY
Protocol: as §1

[16] = target: T16, GUCY2C_ECD Peptide 5 (human)
T16 peptide: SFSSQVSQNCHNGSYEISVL
Protocol: as §1

[17] = target: T17, GUCY2C_ECD Peptide 57 (human)
T17 peptide: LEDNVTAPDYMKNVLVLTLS
Protocol: as §1

[18] = target: T18, GUCY2C_ECD Peptide 72 (human)
T18 peptide: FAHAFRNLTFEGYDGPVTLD
Protocol: as §1

[19] = target: T19, GUCY2C_ECD Peptide 48 (human)
T19 peptide: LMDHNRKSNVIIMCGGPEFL
Protocol: as §1

[20] = target: T20, GUCY2C_ECD Peptide 70 (human)
T20 peptide: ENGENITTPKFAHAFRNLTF
Protocol: as §1

[21] = target: T21, GUCY2C_ECD Peptide 78 (human)
T21 peptide: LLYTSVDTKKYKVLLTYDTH
Protocol: as §1

[22] = target: T22, GUCY2C_ECD Peptide 66 (human)
T22 peptide: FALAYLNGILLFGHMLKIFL
Protocol: as §1

[23] = target: T23, GUCY2C_ECD Peptide 83 (human)
T23 peptide: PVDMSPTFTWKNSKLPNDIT
Protocol: as §1

[24] = target: T24, GUCY2C_ECD Peptide 56 (human)
T24 peptide: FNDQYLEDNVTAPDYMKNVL
Protocol: as §1

[25] = target: T25, GUCY2C_ECD Peptide 1 (human)
T25 peptide: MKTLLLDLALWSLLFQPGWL
Protocol: as §1

[26] = target: T26, GUCY2C_ECD Peptide 65 (human)
T26 peptide: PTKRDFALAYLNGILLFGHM
Protocol: as §1

[27] = target: T27, GUCY2C_ECD Peptide 49 (human)
T27 peptide: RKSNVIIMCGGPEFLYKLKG
Protocol: as §1

[28] = target: T28, GUCY2C_ECD Peptide 46 (human)
T28 peptide: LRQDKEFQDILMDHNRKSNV
Protocol: as §1

[29] = target: T29, GUCY2C_ECD Peptide 76 (human)
T29 peptide: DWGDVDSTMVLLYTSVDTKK
Protocol: as §1

[30] = target: T30, GUCY2C_ECD Peptide 11 (human)
T30 peptide: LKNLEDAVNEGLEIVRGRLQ
Protocol: as §1

[31] = target: T31, GUCY2C_ECD Peptide 75 (human)
T31 peptide: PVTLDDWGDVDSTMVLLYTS
Protocol: as §1

[32] = target: T32, GUCY2C_ECD Peptide 4 (human)
T32 peptide: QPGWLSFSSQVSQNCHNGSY
Protocol: as §1

[33] = target: T33, GUCY2C_ECD Peptide 16 (human)
T33 peptide: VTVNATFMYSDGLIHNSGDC
Protocol: as §1

[34] = target: T34, GUCY2C_ECD Peptide 85 (human)
T34 peptide: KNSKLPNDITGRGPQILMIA
Protocol: as §1

[35] = target: T35, GUCY2C_ECD Peptide 37 (human)
T35 peptide: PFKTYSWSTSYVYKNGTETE
Protocol: as §1

[36] = target: T36, GUCY2C_ECD Peptide 44 (human)
T36 peptide: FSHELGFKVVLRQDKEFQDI
Protocol: as §1

B1: GUCY2C-1608 (bispecific antibody)
chain 1: DIQLTQSPSSLSASVGDRVTITCRASESVDYYGSSLLQWYQQKPGKAPKLLIYAASKLASGVPSRFSGSGSGTDFTLTISSLQPEDFATYYCQQTRKAYTFGQGTKLEIKGGGSGGGGEVQLVESGGGLVQPGGSLRLSCAASGFTFSDYYMTWVRQAPGKGLEWVAFIRNQARGYTSDHNPSVKGRFTISRDNAKNSLYLQMNSLRAEDTAVYYCARDRPSYYVLDYWGQGTTVTVSSGCPPCPAPEAAGAPSVFLFPPKPKDTLMISRTPEVTCVVVDVSHEDPEVKFNWYVDGVEVHNAKTKPREEQYNSTYRVVSVLTVLHQDWLNGKEYKCKVSNKALPAPIEKTISKAKGQPREPQVCTLPPSREEMTKNQVSLWCLVKGFYPSDIAVEWESNGQPENNYKTTPPVLDSDGSFFLYSKLTVDKSRWQQGNVFSCSVMHEALHNHYTQKSLSLSPG
chain 2: DIQMTQSPSSLSASVGDRVTITCTSSQSLFNVRSQKNYLAWYQQKPGKAPKLLIYWASTRESGVPSRFSGSGSGTDFTLTISSLQPEDFATYYCKQSYDLFTFGGGTKVEIKGGGGSGGGGEVQLVESGGGLVQPGGSLRLSCAASGFTFSSYWMHWVRQAPGKGLEWIGEIKPSNELTNVHEKFKDRFTISVDKAKNSAYLQMNSLRAEDTAVYYCTRTITTTEGYWFFDVWGQGTLVTVSSGCPPCPAPEAAGAPSVFLFPPKPKDTLMISRTPEVTCVVVDVSHEDPEVKFNWYVDGVEVHNAKTKPREEQYNSTYRVVSVLTVLHQDWLNGKEYKCKVSNKALPAPIEKTISKAKGQPREPQVYTLPPCREEMTKNQVSLSCAVKGFYPSDIAVEWESNGQPENNYKTTPPVLDSDGSFFLVSKLTVDKSRWQQGNVFSCSVMHEALHNHYTQKSLSLSPG
notes: also called GUCY2c CD3 bispecific
DELFIA TRF [1]: 108 | DELFIA TRF [2]: 102 | DELFIA TRF [3]: 83.2 | DELFIA TRF [4]: 99.2 | DELFIA TRF [5]: 85.2 | DELFIA TRF [6]: 110 | DELFIA TRF [7]: 3210 | DELFIA TRF [8]: 99 | DELFIA TRF [9]: 112 | DELFIA TRF [10]: 19200 | DELFIA TRF [11]: 101 | DELFIA TRF [12]: 259 | DELFIA TRF [13]: 97 | DELFIA TRF [14]: 161 | DELFIA TRF [15]: 100 | DELFIA TRF [16]: 109 | DELFIA TRF [17]: 99.8 | DELFIA TRF [18]: 116 | DELFIA TRF [19]: 148 | DELFIA TRF [20]: 91.8 | DELFIA TRF [21]: 97.8 | DELFIA TRF [22]: 114 | DELFIA TRF [23]: 85.8 | DELFIA TRF [24]: 81 | DELFIA TRF [25]: 166 | DELFIA TRF [26]: 103 | DELFIA TRF [27]: 129 | DELFIA TRF [28]: 106 | DELFIA TRF [29]: 102 | DELFIA TRF [30]: 101 | DELFIA TRF [31]: 88.2 | DELFIA TRF [32]: 125 | DELFIA TRF [33]: 105 | DELFIA TRF [34]: 163 | DELFIA TRF [35]: 107 | DELFIA TRF [36]: 90.5

Reference: patent US20230340151A1 (Pfizer, published 2023)
